# Bridges are numbered along the chain shown (N, C = ends). Where no end group is shown, it is not given here.
# Tests used:
# [1] = FT-IR of aged peptide solutions/suspensions (β-pleated sheet conformation); format: physicochemical; conditions: 450 μM solutions/suspensions, 10 mM phosphate buffer, 150 mM NaCl, 30% acetonitrile, pH 5.5
# Protocol: (§1) The physicochemical properties of cβ-AP were investigated by FT-IR (Fourier-transform infrared spectrometry) and CD (circular dichroism spectropolarimetry). EM (electron microscopy) and AFM (atomic force microscopy) were used to test the properties of fibrils of cβ-AP128. In the EM studies, 450 μM solutions of cβ-AP128 or β-AP (1-28) (SEQ ID NO: 2) or [Lys^17, Asp^21] β-AP(1-28) (SEQ ID NO: 5) in 10 mM phosphate buffer, 150 mM NaCl and 30% acetonitrile, pH 5.5 were initially incubated for several days and tested for fibril formation.
# [2] = Testing of fibril formation by electron microscopy (EM); format: physicochemical; conditions: 450 μM solution in 10 mM phosphate buffer, 150 mM NaCl, 30% acetonitrile, pH 5.5; for fibril formation (EM): after three days incubation
# Protocol: as §1
# [3] = CD of peptide alone (β-pleated sheet formation and precipitation); format: physicochemical; conditions: 10 mM phosphate buffer, 150 mM NaCl, 30% acetonitrile, pH 5.5
# Protocol: (§2) The effect of cβ-AP128 (SEQ ID NO: 20) on the aggregation and fibril formation of β-AP (1-28) was tested by CD and EM. A solution of 450 μM β-AP (1-28) (SEQ ID NO: […]) and cβ-AP128 (SEQ ID NO: […]) in 10 mM phosphate buffer, 150 mM NaCl and 30% acetonitrile, pH 5.5, was incubated for several days and tested for fibril formation by EM (FIGS. 2A and 2B).
# β-AP (1-28) = molecular target: T1, β-AP (1-28) (Homo sapiens, UniProt P05067); test: Inhibition of the aggregation and fibril formation of β-AP (1-28) by cβ-AP128, tested by CD and EM; format: biochemical; conditions: 450 μM β-AP (1-28) and cβ-AP128, 10 mM phosphate buffer, 150 mM NaCl, 30% acetonitrile, pH 5.5
# T1 construct: made in house; host or cells: chemical solid-phase peptide synthesis (Boc/Bzl on PAM resin), no expression host
# Protocol: as §2
# T1 sequence (P05067 672-699 limits assumed): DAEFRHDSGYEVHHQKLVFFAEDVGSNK
substance,measurement,setting,value
"[Lys^17, Asp^21] β-AP (1-28)",conformation by FT-IR after aging,[1],β-pleated sheet conformation
same,fibril formation (EM),[2],completely fibrillated
same,fate after β-pleated sheet formation,[3],precipitated out as insoluble amyloid
"cyclo^17,21 [Lys^17, Asp^21] β-AP (1 to 28) (DAEFRHDSGYEVHHQKKVFFDEDVGSNK; lactam 17-21; listed as Homo sapiens) [cβ-AP128, β-AP (1-28) derivative with lactam bridge between side chains of Lys17 and Asp21]",conformation by FT-IR after aging,[1],prevents the β-pleated sheet conformation
same,time without changes of the CD spectra of the mixture with β-AP (1-28),β-AP (1-28),more than 1 month
same,incubation time over which no fibrils were formed (EM),[2],more than 30 days
β-AP (1-28),conformation by FT-IR after aging,[1],β-pleated sheet conformation
same,fibril formation (EM),[2],completely fibrillated
same,fate after β-pleated sheet formation,[3],precipitated out as insoluble amyloid

# Source: patent publication US7342091B2, “Soluble cyclic analogues of β amyloid peptide” (Fraunhofer-Gesellschaf zur Forderung der angewandten …, priority 2001, dated 2008)
